{"source": "patent US20240360223A1", "about": "(DRAGONFLY THERAPEUTICS, published 2024)", "key": {"[1]": {"molecular_target": "T1, cynomolgus NKG2D (recombinant mFc-tagged dimer) (cynomolgus, UniProt P61252 78-216)", "T1 construct": "also called cyno NKG2D", "T1 sequence (looked up)": "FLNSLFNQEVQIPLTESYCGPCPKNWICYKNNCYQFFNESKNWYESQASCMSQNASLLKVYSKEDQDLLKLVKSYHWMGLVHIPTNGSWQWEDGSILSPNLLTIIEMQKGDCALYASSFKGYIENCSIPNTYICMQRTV", "test": "SPR"}, "human CD16a V158 [2]": {"molecular_target": "T2, human CD16a V158 (human, UniProt P08637 17-208)", "T2 construct": "also called hCD16aV; hCD16a V158", "T2 sequence (P08637 17-208 F176V limits assumed)": "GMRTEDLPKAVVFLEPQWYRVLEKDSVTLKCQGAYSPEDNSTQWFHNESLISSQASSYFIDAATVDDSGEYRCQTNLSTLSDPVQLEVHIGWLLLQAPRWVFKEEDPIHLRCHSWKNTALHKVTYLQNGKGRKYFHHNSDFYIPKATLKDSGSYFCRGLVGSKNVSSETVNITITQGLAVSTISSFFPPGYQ", "test": "SPR"}, "human CD64 [3]": {"molecular_target": "T3, human CD64 (human, UniProt P12314 16-288, limits assumed)", "T3 construct": "also called FcγRI", "T3 sequence (P12314 16-288 limits assumed)": "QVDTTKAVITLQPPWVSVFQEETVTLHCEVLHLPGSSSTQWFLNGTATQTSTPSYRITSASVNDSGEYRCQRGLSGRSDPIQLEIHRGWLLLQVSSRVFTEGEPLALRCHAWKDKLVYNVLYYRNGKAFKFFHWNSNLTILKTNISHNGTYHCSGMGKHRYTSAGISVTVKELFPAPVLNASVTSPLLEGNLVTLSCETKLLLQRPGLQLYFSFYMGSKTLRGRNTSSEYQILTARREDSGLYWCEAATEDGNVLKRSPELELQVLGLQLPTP", "test": "SPR", "protocol": "(§1) Binding analyses as described in this Example were performed using SPR, as described in Example 4."}, "human CD64 [4]": {"molecular_target": "T3, human CD64", "test": "SPR, average", "protocol": "as §1"}, "cynomolgus CD16 [5]": {"molecular_target": "T4, cynomolgus CD16 (cynomolgus, UniProt Q8SPW2 17-208, limits assumed)", "T4 construct": "also called Cyno CD16; cynomolgus FcγRIII", "T4 sequence (Q8SPW2 17-208 limits assumed)": "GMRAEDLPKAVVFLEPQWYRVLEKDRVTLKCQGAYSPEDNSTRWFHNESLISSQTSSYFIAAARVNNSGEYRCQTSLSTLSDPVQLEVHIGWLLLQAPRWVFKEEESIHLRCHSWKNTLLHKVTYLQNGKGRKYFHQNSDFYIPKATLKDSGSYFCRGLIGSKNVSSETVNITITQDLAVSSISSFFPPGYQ", "test": "SPR, average"}, "human CD16a V158 [6]": {"molecular_target": "T2, human CD16a V158", "test": "SPR, control"}, "human CD16a F158 [7]": {"molecular_target": "T5, human CD16a F158 (human, UniProt P08637 17-208)", "T5 sequence (P08637 17-208 limits assumed)": "as the sequence (P08637 17-208 F176V limits assumed) above, with V160F counted along it", "test": "SPR, steady state"}, "[8]": {"molecular_target": "T1, cynomolgus NKG2D (recombinant …)", "test": "SPR, kinetics fit", "excerpt": "(§2) Two different fits were utilized to obtain the equilibrium affinity data: steady state affinity fit and kinetic fit."}, "[9]": {"molecular_target": "T1, cynomolgus NKG2D (recombinant …)", "test": "SPR, 1:1 kinetic fit", "excerpt": "NKG2D is a native dimer, therefore recombinant mFc-tagged NKG2D dimer was used for this experiment. Two different fits were utilized to obtain the equilibrium affinity data: steady state affinity fit and kinetic fit."}, "[10]": {"molecular_target": "T6, human BAFF-R expressed on cells (human, UniProt Q96RJ3 1-184)", "T6 construct": "Cell surface BAFF-R, endogenous on B cell lines and primary B cells or overexpressed on isogenic CHO cells; also called hBAFF-R; hBAFF-R-CHO", "test": "flow cytometry, RL cells"}, "human CD16a V158 [11]": {"molecular_target": "T2, human CD16a V158", "test": "SPR, kinetic fit, average"}, "human CD16a F158 [12]": {"molecular_target": "T5, human CD16a F158", "test": "SPR, steady state, average"}, "human CD32a R131": {"molecular_target": "T7, human CD32a R131 (human, UniProt P12318 36-218, limits assumed)", "T7 construct": "also called FcγRIIa R131", "T7 sequence (looked up)": "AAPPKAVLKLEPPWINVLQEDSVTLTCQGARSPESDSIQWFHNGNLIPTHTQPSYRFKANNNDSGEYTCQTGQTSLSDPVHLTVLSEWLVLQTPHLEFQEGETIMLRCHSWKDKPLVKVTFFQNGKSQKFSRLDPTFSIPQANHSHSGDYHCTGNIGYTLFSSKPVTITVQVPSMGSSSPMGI", "test": "SPR, steady state, average"}, "[13]": {"molecular_target": "T8, human NKG2D (recombinant mFc-tagged dimer) (human, UniProt P26718 78-216)", "T8 construct": "also called hNKG2D", "T8 sequence (looked up)": "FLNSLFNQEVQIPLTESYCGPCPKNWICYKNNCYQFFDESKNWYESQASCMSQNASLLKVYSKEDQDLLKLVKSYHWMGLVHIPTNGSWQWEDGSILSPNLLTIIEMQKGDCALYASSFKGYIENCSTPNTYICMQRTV", "test": "SPR, steady state, control"}, "[14]": {"molecular_target": "T8, human NKG2D (recombinant mFc-tagged …)", "test": "SPR, after 4 weeks at 40 °C"}, "[15]": {"molecular_target": "T6, human BAFF-R expressed on cells", "test": "flow cytometry, SUDHL-6 cells"}, "[16]": {"molecular_target": "T1, cynomolgus NKG2D (recombinant …)", "test": "SPR, steady state fit, average", "excerpt": "as §2"}, "[17]": {"molecular_target": "T9, cynomolgus monkey BAFF-R expressed on cells (cynomolgus monkey)", "T9 construct": "whole, on cells; also called cBAFF-R; cynoBAFF-R", "test": "flow cytometry, CHO-cBAFF-R cells"}, "[18]": {"molecular_target": "T9, cynomolgus monkey BAFF-R expressed on …", "test": "flow cytometry, cyno BAFF-R CHO cells"}, "cynomolgus CD16 [19]": {"molecular_target": "T4, cynomolgus CD16", "test": "SPR, cynomolgus FcγRIII, summary table"}, "cynomolgus CD16 [20]": {"molecular_target": "T4, cynomolgus CD16", "test": "SPR, kinetic fit; first replicate, kinetic fit"}, "human FcRn [21]": {"molecular_target": "T10, human FcRn (human, UniProt P55899 24-297; P61769 21-119)", "T10 sequence (P55899 24-297 limits assumed, chain 1 of 2)": "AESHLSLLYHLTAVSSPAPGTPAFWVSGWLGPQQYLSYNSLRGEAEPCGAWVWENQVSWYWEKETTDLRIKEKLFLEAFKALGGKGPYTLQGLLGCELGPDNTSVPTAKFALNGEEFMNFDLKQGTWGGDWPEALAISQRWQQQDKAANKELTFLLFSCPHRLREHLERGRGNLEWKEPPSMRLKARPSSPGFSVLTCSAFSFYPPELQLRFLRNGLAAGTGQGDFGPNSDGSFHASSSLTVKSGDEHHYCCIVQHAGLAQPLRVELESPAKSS", "T10 sequence (P61769 21-119 limits assumed, chain 2 of 2)": "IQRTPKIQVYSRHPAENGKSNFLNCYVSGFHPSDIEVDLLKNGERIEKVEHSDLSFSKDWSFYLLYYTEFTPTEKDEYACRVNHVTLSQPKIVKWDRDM", "test": "SPR, pH 6.0, steady state; pH 6.0; first replicate"}, "human FcRn [22]": {"molecular_target": "T10, human FcRn", "test": "SPR, pH 6.0, steady state; pH 6.0; third replicate"}, "cynomolgus FcRn": {"molecular_target": "T11, cynomolgus FcRn (cynomolgus, UniProt Q8SPV9 24-297; Q8SPW0 21-119)", "T11 construct": "also called Cyno FcRn", "T11 sequence (Q8SPV9 24-297 limits assumed, chain 1 of 2)": "as the sequence (P55899 24-297 limits assumed, chain 1 of 2) above, with N39D, E44Q, G99S, S189G, S190N, L217M, S269T counted along it", "T11 sequence (Q8SPW0 21-119 limits assumed, chain 2 of 2)": "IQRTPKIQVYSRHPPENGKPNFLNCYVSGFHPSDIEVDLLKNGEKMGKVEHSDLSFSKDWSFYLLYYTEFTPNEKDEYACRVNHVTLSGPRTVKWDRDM", "test": "SPR, pH 6.0, steady state; pH 6.0; fourth replicate"}, "[23]": {"molecular_target": "T6, human BAFF-R expressed on cells", "test": "flow cytometry on hBAFFR-CHO cells, anti-human Fc-g-PE, fold over background"}}, "note": "Several values for one entry are separate records, joined by “and”; a condition that tells them apart may be missing. Equal values may be shown once.", "data": [{"binder": "AB1424/AB1612 F3′ TriNKET (bispecific antibody, human IgG1, kappa, Chain S: anti-BAFF-R scFv-CH2-CH3; chain H: anti-NKG2D VH-CH1-CH2-CH3; chain L: anti-NKG2D VL-CL; also called AB1612-002) not shown heavy: EVQLVESGGGLVKPGGSLRLSCAASGFTFSSYSMNWVRQAPGKGLEWVSSISSSSSYIYYADSVKGRFTISRDNAKNSLYLQMNSLRAEDTAVYYCARGAPIGAAAGWFDPWGQGTLVTVSSASTKGPSVFPLAPSSKSTSGGTAALGCLVKDYFPEPVTVSWNSGALTSGVHTFPAVLQSSGLYSLSSVVTVPSSSLGTQTYICNVNHKPSNTKVDKKVEPKSCDKTHTCPPCPAPELLGGPSVFLFPPKPKDTLMISRTPEVTCVVVDVSHEDPEVKFNWYVDGVEVHNAKTKPREEQYNSTYRVVSVLTVLHQDWLNGKEYKCKVSNKALPAPIEKTISKAKGQPREPQVCTLPPSRDELTENQVSLTCLVKGFYPSDIAVEWESNGQPENNYKTTPPVLDSDGSFFLYSWLTVDKSRWQQGNVFSCSVMHEALHNHYTQKSLSLSPG light: DIQMTQSPSSVSASVGDRVTITCRASQGISSWLAWYQQKPGKAPKLLIYAASSLQSGVPSRFSGSGSGTDFTLTISSLQPEDFATYYCQQGVSFPRTFGGGTKVEIKRTVAAPSVFIFPPSDEQLKSGTASVVCLLNNFYPREAKVQWKVDNALQSGNSQESVTEQDSKDSTYSLSSTLTLSKADYEKHKVYACEVTHQGLSSPVTKSFNRGEC", "values": [{"measurement": "koff", "setting": "[1]", "result": "0.11 s⁻¹ and 0.1 s⁻¹"}, {"measurement": "kon", "setting": "[1]", "result": "210000 M⁻¹ s⁻¹ and 200000 M⁻¹ s⁻¹"}, {"measurement": "koff", "setting": "human CD16a V158 [2]", "result": "0.014 s⁻¹ and 0.013 s⁻¹"}, {"measurement": "kon", "setting": "human CD16a V158 [2]", "result": "110000 M⁻¹ s⁻¹ and 100000 M⁻¹ s⁻¹"}, {"measurement": "Kd", "setting": "human CD64 [3]", "result": "2.9 nM and 3.1 nM and 3.4 nM and 3.2 nM"}, {"measurement": "koff", "setting": "human CD64 [3]", "result": "0.00022 s⁻¹ and 0.00023 s⁻¹"}, {"measurement": "kon", "setting": "human CD64 [3]", "result": "77000 M⁻¹ s⁻¹ and 73000 M⁻¹ s⁻¹ and 69000 M⁻¹ s⁻¹ and 72000 M⁻¹ s⁻¹"}, {"measurement": "Kd", "setting": "human CD64 [4]", "result": 3.2, "unit": "nM"}, {"measurement": "koff", "setting": "human CD64 [4]", "result": 0.00023, "unit": "s⁻¹"}, {"measurement": "kon", "setting": "human CD64 [4]", "result": 73000, "unit": "M⁻¹ s⁻¹"}, {"measurement": "Kd", "setting": "cynomolgus CD16 [5]", "result": 271, "unit": "nM"}, {"measurement": "koff", "setting": "cynomolgus CD16 [5]", "result": 0.021, "unit": "s⁻¹"}, {"measurement": "kon", "setting": "cynomolgus CD16 [5]", "result": 76000, "unit": "M⁻¹ s⁻¹"}, {"measurement": "Kd", "setting": "human CD16a V158 [6]", "result": 145, "unit": "nM"}, {"measurement": "koff", "setting": "human CD16a V158 [6]", "result": 0.017, "unit": "s⁻¹"}, {"measurement": "kon", "setting": "human CD16a V158 [6]", "result": 130000, "unit": "M⁻¹ s⁻¹"}, {"measurement": "Kd", "setting": "human CD16a F158 [7]", "result": "1330 nM and 1260 nM and 1370 nM and 1430 nM"}, {"measurement": "Kd", "setting": "[8]", "result": "609 nM and 617 nM and 572 nM and 587 nM"}, {"measurement": "Kd", "setting": "[9]", "result": "498 nM and 516 nM and 528 nM and 525 nM"}, {"measurement": "EC50", "setting": "[10]", "result": 0.27, "unit": "nM"}, {"measurement": "Max FOB", "setting": "[10]", "result": 8, "unit": "fold over background"}, {"measurement": "Kd", "setting": "human CD16a V158 [11]", "result": 129, "unit": "nM"}, {"measurement": "Kd", "setting": "human CD16a F158 [12]", "result": 1350, "unit": "nM"}, {"measurement": "Kd", "setting": "human CD32a R131", "result": 1400, "unit": "nM"}, {"measurement": "Kd", "setting": "[13]", "result": 544, "unit": "nM"}, {"measurement": "koff", "setting": "[14]", "result": 0.1, "unit": "s⁻¹"}, {"measurement": "kon", "setting": "[14]", "result": 210000, "unit": "M⁻¹ s⁻¹"}, {"measurement": "EC50", "setting": "[15]", "result": 0.41, "unit": "nM"}, {"measurement": "Max FOB", "setting": "[15]", "result": 19, "unit": "fold over background"}, {"measurement": "Kd", "setting": "[16]", "result": 609, "unit": "nM"}, {"measurement": "EC50", "setting": "[17]", "result": 0.96, "unit": "nM"}, {"measurement": "Max FOB", "setting": "[17]", "result": 67, "unit": "fold over background"}, {"measurement": "EC50", "setting": "[18]", "result": 1.85, "unit": "nM"}, {"measurement": "Kd", "setting": "cynomolgus CD16 [19]", "result": 271, "unit": "nM"}, {"measurement": "Kd", "setting": "cynomolgus CD16 [20]", "result": 261, "unit": "nM"}, {"measurement": "Kd", "setting": "human FcRn [21]", "result": 1000, "unit": "nM"}, {"measurement": "Kd", "setting": "human FcRn [22]", "result": 1100, "unit": "nM"}, {"measurement": "Kd", "setting": "cynomolgus FcRn", "result": 1000, "unit": "nM"}, {"measurement": "EC50 (read off the curve)", "setting": "[23]", "result": "~0.8", "unit": "nM"}]}]}
